This note sets out measurements from patent US20160272683A1 (Novo Nordisk, published 2016).

In general, IC50 refers to the midpoint of a concentration-inhibition curve.

Numbered stars: 1 amine (or outer) side, 2 acyl side, 3 side chain; on linkers, the order of the positions; unused ones are H or OH. * marks the point of attachment. C20 diacid = O=C(O)CCCCCCCCCCCCCCCCCCC(=O)*; C18 diacid = O=C(O)CCCCCCCCCCCCCCCCC(=O)*; γGlu = O=C(O)[C@H](CCC(=O)[*:2])N[*:1]; AEEA = NCCOCCOCC(=O)O

T1: human amylin receptor (human calcitonin receptor + human RAMP3) (human) (UniProt P30988)
T1 sequence (looked up) 1: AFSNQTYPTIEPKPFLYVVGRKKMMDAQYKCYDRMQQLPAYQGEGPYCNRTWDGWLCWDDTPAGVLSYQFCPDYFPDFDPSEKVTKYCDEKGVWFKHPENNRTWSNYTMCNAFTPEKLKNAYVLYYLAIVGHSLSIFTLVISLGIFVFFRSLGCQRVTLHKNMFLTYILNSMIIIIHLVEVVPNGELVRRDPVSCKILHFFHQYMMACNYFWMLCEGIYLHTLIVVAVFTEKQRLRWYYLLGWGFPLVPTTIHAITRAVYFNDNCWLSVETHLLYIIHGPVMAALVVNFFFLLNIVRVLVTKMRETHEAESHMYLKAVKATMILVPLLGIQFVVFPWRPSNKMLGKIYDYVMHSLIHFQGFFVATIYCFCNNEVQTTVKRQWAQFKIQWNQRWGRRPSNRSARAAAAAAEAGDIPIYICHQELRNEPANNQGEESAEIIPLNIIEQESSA
T1 sequence (looked up) 2: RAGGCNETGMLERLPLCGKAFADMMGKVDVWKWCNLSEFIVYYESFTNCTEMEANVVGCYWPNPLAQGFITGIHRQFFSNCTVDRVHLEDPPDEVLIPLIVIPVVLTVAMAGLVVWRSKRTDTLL

B1: [N-terminal(C18 diacid), 9V, 25P]mimylin (peptide)
peptide: {C18 diacid}-EASELSTAVLGRLSAELHELATLPPTETGPESP-NH2
SMILES: CC(C)C[C@H](NC(=O)[C@H](CCC(=O)O)NC(=O)[C@H](Cc1c[nH]cn1)NC(=O)[C@H](CC(C)C)NC(=O)[C@H](CCC(=O)O)NC(=O)[C@H](C)NC(=O)[C@H](CO)NC(=O)[C@H](CC(C)C)NC(=O)[C@H](CCCNC(=N)N)NC(=O)CNC(=O)[C@H](CC(C)C)NC(=O)[C@@H](NC(=O)[C@H](C)NC(=O)[C@@H](NC(=O)[C@H](CO)NC(=O)[C@H](CC(C)C)NC(=O)[C@H](CCC(=O)O)NC(=O)[C@H](CO)NC(=O)[C@H](C)NC(=O)[C@H](CCC(=O)O)NC(=O)CCCCCCCCCCCCCCCCC(=O)O)[C@@H](C)O)C(C)C)C(=O)N[C@@H](C)C(=O)N[C@H](C(=O)N[C@@H](CC(C)C)C(=O)N1CCC[C@H]1C(=O)N1CCC[C@H]1C(=O)N[C@H](C(=O)N[C@@H](CCC(=O)O)C(=O)N[C@H](C(=O)NCC(=O)N1CCC[C@H]1C(=O)N[C@@H](CCC(=O)O)C(=O)N[C@@H](CO)C(=O)N1CCC[C@H]1C(N)=O)[C@@H](C)O)[C@@H](C)O)[C@@H](C)O
B2: [N-terminal(C18 diacid), 4P, 9V]mimylin (peptide)
peptide: {C18 diacid}-EASPLSTAVLGRLSAELHELATLPRTETGPESP-NH2
SMILES: CC(C)C[C@H](NC(=O)[C@H](CCC(=O)O)NC(=O)[C@H](Cc1c[nH]cn1)NC(=O)[C@H](CC(C)C)NC(=O)[C@H](CCC(=O)O)NC(=O)[C@H](C)NC(=O)[C@H](CO)NC(=O)[C@H](CC(C)C)NC(=O)[C@H](CCCNC(=N)N)NC(=O)CNC(=O)[C@H](CC(C)C)NC(=O)[C@@H](NC(=O)[C@H](C)NC(=O)[C@@H](NC(=O)[C@H](CO)NC(=O)[C@H](CC(C)C)NC(=O)[C@@H]1CCCN1C(=O)[C@H](CO)NC(=O)[C@H](C)NC(=O)[C@H](CCC(=O)O)NC(=O)CCCCCCCCCCCCCCCCC(=O)O)[C@@H](C)O)C(C)C)C(=O)N[C@@H](C)C(=O)N[C@H](C(=O)N[C@@H](CC(C)C)C(=O)N1CCC[C@H]1C(=O)N[C@@H](CCCNC(=N)N)C(=O)N[C@H](C(=O)N[C@@H](CCC(=O)O)C(=O)N[C@H](C(=O)NCC(=O)N1CCC[C@H]1C(=O)N[C@@H](CCC(=O)O)C(=O)N[C@@H](CO)C(=O)N1CCC[C@H]1C(N)=O)[C@@H](C)O)[C@@H](C)O)[C@@H](C)O
B3: [N-terminal(C20 diacid-gGlu), des1, 30S, 31G, 33L]mimylin (peptide)
peptide: {C20 diacid-γGlu}-ASELSTAALGRLSAELHELATLPRTETGSGSL-NH2
SMILES: CC(C)C[C@H](NC(=O)[C@H](CO)NC(=O)CNC(=O)[C@H](CO)NC(=O)CNC(=O)[C@@H](NC(=O)[C@H](CCC(=O)O)NC(=O)[C@@H](NC(=O)[C@H](CCCNC(=N)N)NC(=O)[C@@H]1CCCN1C(=O)[C@H](CC(C)C)NC(=O)[C@@H](NC(=O)[C@H](C)NC(=O)[C@H](CC(C)C)NC(=O)[C@H](CCC(=O)O)NC(=O)[C@H](Cc1c[nH]cn1)NC(=O)[C@H](CC(C)C)NC(=O)[C@H](CCC(=O)O)NC(=O)[C@H](C)NC(=O)[C@H](CO)NC(=O)[C@H](CC(C)C)NC(=O)[C@H](CCCNC(=N)N)NC(=O)CNC(=O)[C@H](CC(C)C)NC(=O)[C@H](C)NC(=O)[C@H](C)NC(=O)[C@@H](NC(=O)[C@H](CO)NC(=O)[C@H](CC(C)C)NC(=O)[C@H](CCC(=O)O)NC(=O)[C@H](CO)NC(=O)[C@H](C)NC(=O)CC[C@H](NC(=O)CCCCCCCCCCCCCCCCCCC(=O)O)C(=O)O)[C@@H](C)O)[C@@H](C)O)[C@@H](C)O)[C@@H](C)O)C(N)=O
B4: [N-terminal(C18 diacid), 9V, 18A]mimylin (peptide)
peptide: {C18 diacid}-EASELSTAVLGRLSAELAELATLPRTETGPESP-NH2
SMILES: CC(C)C[C@H](NC(=O)[C@H](CCC(=O)O)NC(=O)[C@H](C)NC(=O)[C@H](CO)NC(=O)[C@H](CC(C)C)NC(=O)[C@H](CCCNC(=N)N)NC(=O)CNC(=O)[C@H](CC(C)C)NC(=O)[C@@H](NC(=O)[C@H](C)NC(=O)[C@@H](NC(=O)[C@H](CO)NC(=O)[C@H](CC(C)C)NC(=O)[C@H](CCC(=O)O)NC(=O)[C@H](CO)NC(=O)[C@H](C)NC(=O)[C@H](CCC(=O)O)NC(=O)CCCCCCCCCCCCCCCCC(=O)O)[C@@H](C)O)C(C)C)C(=O)N[C@@H](C)C(=O)N[C@@H](CCC(=O)O)C(=O)N[C@@H](CC(C)C)C(=O)N[C@@H](C)C(=O)N[C@H](C(=O)N[C@@H](CC(C)C)C(=O)N1CCC[C@H]1C(=O)N[C@@H](CCCNC(=N)N)C(=O)N[C@H](C(=O)N[C@@H](CCC(=O)O)C(=O)N[C@H](C(=O)NCC(=O)N1CCC[C@H]1C(=O)N[C@@H](CCC(=O)O)C(=O)N[C@@H](CO)C(=O)N1CCC[C@H]1C(N)=O)[C@@H](C)O)[C@@H](C)O)[C@@H](C)O
B5: [N-terminal(C20 diacid-gGlu), 23Y, 30S, 31G]mimylin (peptide)
peptide: {C20 diacid-γGlu}-EASELSTAALGRLSAELHELATYPRTETGSGSP-NH2
SMILES: CC(C)C[C@H](NC(=O)[C@H](C)NC(=O)[C@H](C)NC(=O)[C@@H](NC(=O)[C@H](CO)NC(=O)[C@H](CC(C)C)NC(=O)[C@H](CCC(=O)O)NC(=O)[C@H](CO)NC(=O)[C@H](C)NC(=O)[C@H](CCC(=O)O)NC(=O)CC[C@H](NC(=O)CCCCCCCCCCCCCCCCCCC(=O)O)C(=O)O)[C@@H](C)O)C(=O)NCC(=O)N[C@@H](CCCNC(=N)N)C(=O)N[C@@H](CC(C)C)C(=O)N[C@@H](CO)C(=O)N[C@@H](C)C(=O)N[C@@H](CCC(=O)O)C(=O)N[C@@H](CC(C)C)C(=O)N[C@@H](Cc1c[nH]cn1)C(=O)N[C@@H](CCC(=O)O)C(=O)N[C@@H](CC(C)C)C(=O)N[C@@H](C)C(=O)N[C@H](C(=O)N[C@@H](Cc1ccc(O)cc1)C(=O)N1CCC[C@H]1C(=O)N[C@@H](CCCNC(=N)N)C(=O)N[C@H](C(=O)N[C@@H](CCC(=O)O)C(=O)N[C@H](C(=O)NCC(=O)N[C@@H](CO)C(=O)NCC(=O)N[C@@H](CO)C(=O)N1CCC[C@H]1C(N)=O)[C@@H](C)O)[C@@H](C)O)[C@@H](C)O
B6: [N-terminal(C18 diacid), 9V, 28P]mimylin (peptide)
peptide: {C18 diacid}-EASELSTAVLGRLSAELHELATLPRTEPGPESP-NH2
SMILES: CC(C)C[C@H](NC(=O)[C@H](CCC(=O)O)NC(=O)[C@H](Cc1c[nH]cn1)NC(=O)[C@H](CC(C)C)NC(=O)[C@H](CCC(=O)O)NC(=O)[C@H](C)NC(=O)[C@H](CO)NC(=O)[C@H](CC(C)C)NC(=O)[C@H](CCCNC(=N)N)NC(=O)CNC(=O)[C@H](CC(C)C)NC(=O)[C@@H](NC(=O)[C@H](C)NC(=O)[C@@H](NC(=O)[C@H](CO)NC(=O)[C@H](CC(C)C)NC(=O)[C@H](CCC(=O)O)NC(=O)[C@H](CO)NC(=O)[C@H](C)NC(=O)[C@H](CCC(=O)O)NC(=O)CCCCCCCCCCCCCCCCC(=O)O)[C@@H](C)O)C(C)C)C(=O)N[C@@H](C)C(=O)N[C@H](C(=O)N[C@@H](CC(C)C)C(=O)N1CCC[C@H]1C(=O)N[C@@H](CCCNC(=N)N)C(=O)N[C@H](C(=O)N[C@@H](CCC(=O)O)C(=O)N1CCC[C@H]1C(=O)NCC(=O)N1CCC[C@H]1C(=O)N[C@@H](CCC(=O)O)C(=O)N[C@@H](CO)C(=O)N1CCC[C@H]1C(N)=O)[C@@H](C)O)[C@@H](C)O
B7: [N-terminal(C20 diacid-gGlu), des1, 30S, 31G, 33F]mimylin (peptide)
peptide: {C20 diacid-γGlu}-ASELSTAALGRLSAELHELATLPRTETGSGSF-NH2
SMILES: CC(C)C[C@H](NC(=O)[C@H](C)NC(=O)[C@H](C)NC(=O)[C@@H](NC(=O)[C@H](CO)NC(=O)[C@H](CC(C)C)NC(=O)[C@H](CCC(=O)O)NC(=O)[C@H](CO)NC(=O)[C@H](C)NC(=O)CC[C@H](NC(=O)CCCCCCCCCCCCCCCCCCC(=O)O)C(=O)O)[C@@H](C)O)C(=O)NCC(=O)N[C@@H](CCCNC(=N)N)C(=O)N[C@@H](CC(C)C)C(=O)N[C@@H](CO)C(=O)N[C@@H](C)C(=O)N[C@@H](CCC(=O)O)C(=O)N[C@@H](CC(C)C)C(=O)N[C@@H](Cc1c[nH]cn1)C(=O)N[C@@H](CCC(=O)O)C(=O)N[C@@H](CC(C)C)C(=O)N[C@@H](C)C(=O)N[C@H](C(=O)N[C@@H](CC(C)C)C(=O)N1CCC[C@H]1C(=O)N[C@@H](CCCNC(=N)N)C(=O)N[C@H](C(=O)N[C@@H](CCC(=O)O)C(=O)N[C@H](C(=O)NCC(=O)N[C@@H](CO)C(=O)NCC(=O)N[C@@H](CO)C(=O)N[C@@H](Cc1ccccc1)C(N)=O)[C@@H](C)O)[C@@H](C)O)[C@@H](C)O

The target in the test is T1, human amylin receptor (human calcitonin receptor + human RAMP3) (human). Kind of test: whole-cell competition vs 125I-rat amylin (Assay Va).
For the molecule B1, the IC50 was found to be 0.383 nM.

For B2, the IC50 is 0.323 nM. For B3 the value was 3.05 nM.

For the molecule B4, the IC50 was 0.745 nM. With {C20 diacid-γGlu-AEEA-AEEA-AEEA}-ASELSTAALGRLSAELHELATLPRTETGSGSP-NH2 [[N-terminal(C20 diacid-gGlu-3xOEG), des1, 30S, 31G]mimylin], the IC50 came out at 0.432 nM.

B5: the IC50 was determined as 1.59 nM.

Regarding B6, the IC50 was 9 nM. Under B7 stands 1.36 nM.
